Here are results for two substances from publication PMC12460815.

Values joined by “and” are separate entries in the source; they are usually repeats but may differ in a detail not shown here. Equal entries are not always repeated.

Test [1] has as its target recombinant Ser 255 mutation FGF2 (UniProt P09038). The test is described as follows: gel electrophoresis under non-denaturing conditions; recombinant FGF2 under non-denaturing conditions, compared with denaturation at 95 °C.
Test [2] has as its target recombinant wild-type FGF2 (UniProt P09038). The test is described as above.

One may read the stoichiometry N as the number of molecules, sites or subunits per partner or assembly. “recombinant Ser 255 mutation FGF2 (from UniProt P09038 1-288) (natural protein)”: the stoichiometry N in test [1] was 2 and 4. “recombinant wild-type FGF2 (from UniProt P09038 1-288) (natural protein)”: the stoichiometry N in test [2] is 2 and 4.
